Ends that are not written are not given here.
B1: RCM cyclized version of the HWSAN (SEQ ID NO:11) peptide (peptide)
peptide: HWSAN
modifications: staple (positions not given here); also: RCM ring between olefin-bearing non-natural residues, places not given here, biotinylated
B2: binary ligand hevwh-YLGHK (peptide)
peptide 1: HEVWH
peptide 2: YLGHK
modifications: not fully specified (bridges)

Legend:
[1] = molecular target: T1, GST-PfLDH (UniProt Q27743 2-316); experiment: ELISA
[2] = molecular target: PfLDH protein (UniProt Q27743 2-316)
[3] = molecular target: GST-PvLDH (UniProt P84793 1-313); experiment: sandwich ELISA
[4] = molecular target: T1, GST-PfLDH; experiment: sandwich ELISA

Binder | EC50 [1] [nM] | Kd [2] [nM] | EC50 [3] [nM] | EC50 [4] [nM]
B1 | 2.57 | – | – | –
B2 | – | ~10 | 12 | 15.1

Source: US20220380409A1 (published 2022)
